The target of this assay is CCR-2 (Homo sapiens, UniProt P41597). Kind of assay: Cold competition ligand binding to hCCR-2 using 125I-human MCP-1. To be noted: 125I-human MCP-1, n=8.

Results on 1 substance are retold here after patent US8618101B2, “N-((1R,2S,5R)-5-(tert-butylamino)-2-((S)-3-(7-tert-butylpyrazolo[1,5-a][1,3,5]triazin-4-ylamino)-2-oxopyrrolidin-1-yl)cyclohexyl)acetamide, a dual modulator of chemokine receptor activity, crystalline forms and processes” (Bristol-Myers Squibb Company, priority 2009, dated 2013).

CCR-2, sequence (P41597 whole entry): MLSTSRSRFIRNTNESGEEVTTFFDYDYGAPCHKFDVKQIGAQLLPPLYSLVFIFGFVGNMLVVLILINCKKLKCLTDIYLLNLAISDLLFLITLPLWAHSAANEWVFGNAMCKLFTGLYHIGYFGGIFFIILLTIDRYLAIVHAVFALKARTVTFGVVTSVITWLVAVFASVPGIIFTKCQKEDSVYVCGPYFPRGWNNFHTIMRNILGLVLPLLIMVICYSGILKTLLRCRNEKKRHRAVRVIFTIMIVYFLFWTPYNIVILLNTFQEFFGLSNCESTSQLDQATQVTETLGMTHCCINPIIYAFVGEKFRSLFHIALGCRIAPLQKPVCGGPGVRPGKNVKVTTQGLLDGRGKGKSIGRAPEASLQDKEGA

For orientation: Kd means the equilibrium constant for the complex coming apart. A higher Kd goes with a looser complex. “mouse MCP-1: mouse chemokine MCP-1, major ligand of CCR-2” registered a Kd of 0.91 nM.
